Measurements reported in PMC3087119 (Human Mutation, 2011).

Target: the molecule itself
Test: static light scattering

B1: βA3-crystallin (natural protein)
chain: METQAEQQELETLPTTKMAQTNPTPGSLGPWKITIYDQENFQGKRMEFTSSCPNVSERSFDNVRSLKVESGAWIGYEHTSFCGQQFILERGEYPRWDAWSGSNAYHIERLMSFRPICSANHKESKMTIFEKENFIGRQWEISDDYPSLQAMGWFNNEVGSMKIQSGAWVCYQYPGYRGYQYILECDHHGGDYKHWREWGSHAQTSQIQSIRRIQQ
With B1 the “stoichiometry N” value was 2.
